Experimental data taken from US20230071371A1 (Scripps Research, published 2023).
Bridges are numbered along the chain shown (N, C = ends). Where no end group is shown, it is not given here. [ ]: non-standard residue; d: D form. hArg = N=C(N)NCCCC[C@H](N)C(=O)O; staple K20 = not defined here; staple K4 = not defined here; staple K5 = not defined here; staple K6 = not defined here; staple K7 = not defined here; staple K8 = not defined here; staple K9 = not defined here; Nle = CCCC[C@H](N)C(=O)O; L12 = not defined here; L1 = not defined here; L3 = not defined here; L6 = not defined here; L7 = not defined here; L8 = not defined here; L9 = not defined here; Aib = CC(C)(N)C(=O)O

target: human GLP-1R (human, UniProt P43220 24-463); test: cell-based or functional assay

| Binder | EC50 cAMP 0% FBS [nM] |
| --- | --- |
| Y[Aib]EGTFTSDYSIYLDKKAQ[Aib]AFVKWLIAQGPSSGAPPPS (linker 17-24 via staple K9; reading uncertain) [Conjugate 164] | 0.14 |
| Y[Aib]EGTFTSDYSIYLDKKAQ[Aib]AFVKWLIAQGPSSGAPPPS (linker 17-24 via staple K6; reading uncertain) [Conjugate 160] | 0.03 |
| Y[Aib]EGTFTSDYSIYLDKKAA[Aib]EFVKWLLAGGPSSGAPPPS (linker 17-24 via staple K6; reading uncertain) [Conjugate 147] | 0.07 |
| Y[Aib]EGTFTSDYSIYKDKQAA[Aib]KFVNWLLAGGPSSGAPPPS (linker 14-21 via staple K7; reading uncertain) [Conjugate 154] | 0.03 |
| Y[Aib]EGTFTSDYSIYKDKQAA[Aib]KFKNWLKAGGPSSGAPPPS (linker 23-27 via staple K8; reading uncertain) [Conjugate 156] | 14.6 |
| Y[Aib]EGTFTSDYSIYKDKQAA[Aib]KFKNWLKAGGPSSGAPPPS (linker 23-27 via staple K9; reading uncertain) [Conjugate 159] | 1180 |
| YXEGTFTSDYSIYLDKKAAXEFVKWLLAGGPSSGAPPPS (staple K5 on Lys 17, 24; Aib 2, 20) [Conjugate 139] | 0.061 |
| YXEGTFTSDYSIYLDKKAAXEFVKWLLAGGPSSGAPPPS (staple K4 on Lys 17, 24; Aib 2, 20) [Conjugate 140] | 0.034 |
| Y[Aib]EGTFTSDYSIYLDKKAQ[Aib]AFVKWLIAQGPSSGAPPPS (linker 17-24 via staple K4; reading uncertain) [Conjugate 146] | 0.11 |
| Y[Aib]EGTFTSDYSIYLDKKAA[Aib]EFVKWLLAGGPSSGAPPPS (linker 17-24 via staple K8; reading uncertain) [Conjugate 148] | 0.46 |
| Y[Aib]EGTFTSDYSIYKDKQAA[Aib]KFKNWLKAGGPSSGAPPPS (linker 23-27 via staple K6; reading uncertain) [Conjugate 155] | 4.08 |
| Y[Aib]EGTFTSDYSIYLDKKAA[Aib]EFVKWLLAGGPSSGAPPPS (linker 17-24 via staple K7; reading uncertain) [Conjugate 150] | 0.06 |
| Y[Aib]EGTFTSDYSIYLDKKAQ[Aib]AFVKWLIAQGPSSGAPPPS (linker 17-24 via staple K8; reading uncertain) [Conjugate 161] | 0.4 |
| Y[Aib]EGTFTSDYSIYKDKQAA[Aib]KFVNWLLAGGPSSGAPPPS (linker 14-21 via staple K20; reading uncertain) [Conjugate 153] | 0.05 |
| Y[Aib]EGTFTSDYSIYKDKQAA[Aib]KFKNWLKAGGPSSGAPPPS (linker 23-27 via staple K5; reading uncertain) [Conjugate 158] | 98.3 |
| Y[Aib]EGTFTSDYSIYLDKKAA[Aib]EFVKWLLAGGPSSGAPPPS (linker 17-24 via staple K20; reading uncertain) [Conjugate 149] | 0.05 |
| Y[Aib]EGTFTSDYSIYKDKQAA[Aib]KFVNWLLAGGPSSGAPPPS (linker 14-21 via staple K9; reading uncertain) [Conjugate 144] | 0.012 |
| Y[Aib]EGTFTSDYSIYKDKQAA[Aib]KFVNWLLAGGPSSGAPPPS (linker 14-21 via staple K6; reading uncertain) [Conjugate 151] | 0.03 |
| Y[Aib]EGTFTSDYSIYLDKKAA[Aib]EFVKWLLAGGPSSGAPPPS (linker 17-24 via staple K9; reading uncertain) [Conjugate 143] | 0.068 |
| Y[Aib]EGTFTSDYSIYLDKKAQ[Aib]AFVKWLIAQGPSSGAPPPS (linker 17-24 via staple K20; reading uncertain) [Conjugate 162] | 0.05 |
| Y[Aib]EGTFTSDYSIYLDKKAQ[Aib]AFVKWLIAQGPSSGAPPPS (linker 17-24 via staple K5; reading uncertain) [Conjugate 163] | 0.24 |

target: T1, human GIPR (human, UniProt P48546 22-466); test: cell-based or functional assay
T1 sequence (looked up): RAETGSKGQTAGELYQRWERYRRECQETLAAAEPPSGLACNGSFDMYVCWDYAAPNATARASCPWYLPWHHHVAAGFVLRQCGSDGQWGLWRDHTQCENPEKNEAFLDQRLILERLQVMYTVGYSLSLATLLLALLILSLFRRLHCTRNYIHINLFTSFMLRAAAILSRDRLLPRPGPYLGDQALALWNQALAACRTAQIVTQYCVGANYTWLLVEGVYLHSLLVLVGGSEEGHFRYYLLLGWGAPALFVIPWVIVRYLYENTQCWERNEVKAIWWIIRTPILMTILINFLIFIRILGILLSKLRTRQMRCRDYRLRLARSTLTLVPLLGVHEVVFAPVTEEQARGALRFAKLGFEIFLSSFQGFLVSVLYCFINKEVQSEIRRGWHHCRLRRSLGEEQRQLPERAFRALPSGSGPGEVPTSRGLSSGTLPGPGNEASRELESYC

| Binder | EC50 cAMP 0% FBS [nM] |
| --- | --- |
| Y[Aib]EGTFTSDYSIYKDKQAA[Aib]KFVNWLLAGGPSSGAPPPS (linker 14-21 via staple K8; not fully specified; reading uncertain) [Conjugate 152] | 0.05 |
| Y[Aib]EGTFTSDYSIYLDKKAQ[Aib]AFVKWLIAQGPSSGAPPPS (linker 17-24 via staple K9; reading uncertain) [Conjugate 164] | 68.3 |
| Y[Aib]EGTFTSDYSIYLDKKAQ[Aib]AFVKWLIAQGPSSGAPPPS (linker 17-24 via staple K6; reading uncertain) [Conjugate 160] | 7.3 |
| Y[Aib]EGTFTSDYSIYLDKKAA[Aib]EFVKWLLAGGPSSGAPPPS (linker 17-24 via staple K6; reading uncertain) [Conjugate 147] | 0.02 |
| Y[Aib]EGTFTSDYSIYKDKQAA[Aib]KFVNWLLAGGPSSGAPPPS (linker 14-21 via staple K7; reading uncertain) [Conjugate 154] | 0.02 |
| Y[Aib]EGTFTSDYSIYKDKQAA[Aib]KFKNWLKAGGPSSGAPPPS (linker 23-27 via staple K8; reading uncertain) [Conjugate 156] | 2.82 |
| Y[Aib]EGTFTSDYSIYKDKQAA[Aib]KFKNWLKAGGPSSGAPPPS (linker 23-27 via staple K9; reading uncertain) [Conjugate 159] | 0.0312 |
| YXEGTFTSDYSIYLDKKAAXEFVKWLLAGGPSSGAPPPS (staple K5 on Lys 17, 24; Aib 2, 20) [Conjugate 139] | 0.0026 |
| YXEGTFTSDYSIYLDKKAAXEFVKWLLAGGPSSGAPPPS (staple K4 on Lys 17, 24; Aib 2, 20) [Conjugate 140] | 0.0028 |
| Y[Aib]EGTFTSDYSIYLDKKAQ[Aib]AFVKWLIAQGPSSGAPPPS (linker 17-24 via staple K4; reading uncertain) [Conjugate 146] | 0.03 |
| Y[Aib]EGTFTSDYSIYLDKKAA[Aib]EFVKWLLAGGPSSGAPPPS (linker 17-24 via staple K8; reading uncertain) [Conjugate 148] | 0.03 |
| Y[Aib]EGTFTSDYSIYKDKQAA[Aib]KFKNWLKAGGPSSGAPPPS (linker 23-27 via staple K6; reading uncertain) [Conjugate 155] | 1.66 |
| Y[Aib]EGTFTSDYSIYLDKKAA[Aib]EFVKWLLAGGPSSGAPPPS (linker 17-24 via staple K7; reading uncertain) [Conjugate 150] | 0.02 |
| Y[Aib]EGTFTSDYSIYLDKKAQ[Aib]AFVKWLIAQGPSSGAPPPS (linker 17-24 via staple K8; reading uncertain) [Conjugate 161] | 0.01 |
| Y[Aib]EGTFTSDYSIYKDKQAA[Aib]KFVNWLLAGGPSSGAPPPS (linker 14-21 via staple K20; reading uncertain) [Conjugate 153] | 0.01 |
| Y[Aib]EGTFTSDYSIYKDKQAA[Aib]KFKNWLKAGGPSSGAPPPS (linker 23-27 via staple K5; reading uncertain) [Conjugate 158] | 30.5 |
| Y[Aib]EGTFTSDYSIYLDKKAA[Aib]EFVKWLLAGGPSSGAPPPS (linker 17-24 via staple K20; reading uncertain) [Conjugate 149] | 0.01 |
| Y[Aib]EGTFTSDYSIYKDKQAA[Aib]KFVNWLLAGGPSSGAPPPS (linker 14-21 via staple K9; reading uncertain) [Conjugate 144] | 0.0022 |
| Y[Aib]EGTFTSDYSIYKDKQAA[Aib]KFVNWLLAGGPSSGAPPPS (linker 14-21 via staple K6; reading uncertain) [Conjugate 151] | 0.02 |
| Y[Aib]EGTFTSDYSIYLDKKAA[Aib]EFVKWLLAGGPSSGAPPPS (linker 17-24 via staple K9; reading uncertain) [Conjugate 143] | 0.002 |
| Y[Aib]EGTFTSDYSIYLDKKAQ[Aib]AFVKWLIAQGPSSGAPPPS (linker 17-24 via staple K20; reading uncertain) [Conjugate 162] | 0.02 |
| Y[Aib]EGTFTSDYSIYLDKKAQ[Aib]AFVKWLIAQGPSSGAPPPS (linker 17-24 via staple K5; reading uncertain) [Conjugate 163] | 0.05 |

target: human NPFF2R (human, UniProt Q9Y5X5 1-522); test: cell-based or functional assay
Sequence (Q9Y5X5 whole entry): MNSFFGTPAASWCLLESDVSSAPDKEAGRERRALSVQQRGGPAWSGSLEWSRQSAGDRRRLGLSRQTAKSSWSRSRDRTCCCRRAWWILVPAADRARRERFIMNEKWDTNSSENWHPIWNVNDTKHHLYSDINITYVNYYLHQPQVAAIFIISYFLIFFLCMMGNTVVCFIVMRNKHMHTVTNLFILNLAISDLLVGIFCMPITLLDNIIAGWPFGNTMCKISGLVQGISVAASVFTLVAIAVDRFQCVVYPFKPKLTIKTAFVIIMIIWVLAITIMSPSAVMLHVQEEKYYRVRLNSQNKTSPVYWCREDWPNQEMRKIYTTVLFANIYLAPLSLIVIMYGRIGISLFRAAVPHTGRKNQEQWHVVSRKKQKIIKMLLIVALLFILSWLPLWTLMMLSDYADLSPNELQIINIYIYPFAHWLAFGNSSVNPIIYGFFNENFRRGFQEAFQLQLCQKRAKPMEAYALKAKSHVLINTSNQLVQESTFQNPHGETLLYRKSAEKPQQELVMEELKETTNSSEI

| Binder | NPFF2R EC50 0% FBS [nM] | NPFF2R EC50 10% FBS [nM] |
| --- | --- | --- |
| SRAHQCS[Nle]ETRTCDINPAWYTG[hArg]GIRPVGRF-NH2 (linker 6-13 via L6; reading uncertain) [Conjugate 270] | 270 | 310 |
| SRAHQCS[Nle]ETRTCDINPAWYTG[hArg]GIRPVGRF-NH2 (linker 6-13 via L8; reading uncertain) [Conjugate 267] | 560 | ~10000 |
| SRAHQCS[Nle]ETRTCDINPAWYTG[hArg]GIRPVGRF-NH2 (linker 6-13 via L9; reading uncertain) [Conjugate 268] | 9000 | > 10000 |
| SRAHQCS[Nle]ETRTCDINPAWYTG[hArg]GIRPVGRF-NH2 (linker 6-13 via L12; reading uncertain) [Conjugate 269] | 1600 | ~8000 |
| SRAHQCS[Nle]ETRTCDINPAWYTG[hArg]GIRPVGRF-NH2 (linker 6-13 via L3; reading uncertain) [Conjugate 255] | 150 | 220 |
| SRAHQCS[Nle]ETRTCDINPAWYTG[hArg]GIRPVGRF-NH2 (linker 6-13 via L7; reading uncertain) [Conjugate 271] | 130 | 140 |
| SRAHQCS[Nle]ETRTCDINPAWYTG[hArg]GIRPVGRF-NH2 (linker 6-13 via L1; reading uncertain) [Conjugate 251] | 920 | 1200 |

target: T2, GPR10 (UniProt P49683 1-370, limits assumed); test: cell-based or functional assay
T2 sequence (looked up): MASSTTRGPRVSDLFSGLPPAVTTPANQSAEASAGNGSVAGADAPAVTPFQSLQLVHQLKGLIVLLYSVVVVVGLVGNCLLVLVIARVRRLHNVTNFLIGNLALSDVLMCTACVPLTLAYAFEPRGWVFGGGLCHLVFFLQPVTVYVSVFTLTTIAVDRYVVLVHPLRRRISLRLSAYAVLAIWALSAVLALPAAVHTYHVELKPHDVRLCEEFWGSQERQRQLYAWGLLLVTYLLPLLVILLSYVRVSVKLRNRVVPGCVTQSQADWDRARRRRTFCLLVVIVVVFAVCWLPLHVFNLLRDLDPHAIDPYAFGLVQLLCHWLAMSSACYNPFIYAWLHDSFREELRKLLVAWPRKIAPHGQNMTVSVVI

| Binder | GPR10 EC50 0% FBS [nM] | GPR10 EC50 10% FBS [nM] |
| --- | --- | --- |
| SRAHQCS[Nle]ETRTCDINPAWYTG[hArg]GIRPVGRF-NH2 (linker 6-13 via L6; reading uncertain) [Conjugate 270] | 12 | 42 |
| SRAHQCS[Nle]ETRTCDINPAWYTG[hArg]GIRPVGRF-NH2 (linker 6-13 via L8; reading uncertain) [Conjugate 267] | 24 | 830 |
| SRAHQCS[Nle]ETRTCDINPAWYTG[hArg]GIRPVGRF-NH2 (linker 6-13 via L9; reading uncertain) [Conjugate 268] | 8.2 | 120 |
| SRAHQCS[Nle]ETRTCDINPAWYTG[hArg]GIRPVGRF-NH2 (linker 6-13 via L12; reading uncertain) [Conjugate 269] | 10 | 120 |
| SRAHQCS[Nle]ETRTCDINPAWYTG[hArg]GIRPVGRF-NH2 (linker 6-13 via L3; reading uncertain) [Conjugate 255] | 8 | 9.1 |
| SRAHQCS[Nle]ETRTCDINPAWYTG[hArg]GIRPVGRF-NH2 (linker 6-13 via L7; reading uncertain) [Conjugate 271] | 9 | 39 |
| SRAHQCS[Nle]ETRTCDINPAWYTG[hArg]GIRPVGRF-NH2 (linker 6-13 via L1; reading uncertain) [Conjugate 251] | 5.9 | 10 |

target: T2, GPR10; test: cell-based or functional assay; remark: another data set of the same source

| Binder | GPR10 EC50 [nM] |
| --- | --- |
| SRAHQCS[Nle]ETRTCDINPAWYTG[hArg]GIRPVGRF-NH2 (linker 6-13 via L3; reading uncertain) [Conjugate 255] | 9.1 |
| SRAHQCS[Nle]ETRTCDINPAWYTG[hArg]GIRPVGRF-NH2 (linker 6-13 via L1; reading uncertain) [Conjugate 251] | 10 |
